From article PMC12374985

Target: endogenous PKM2 (human (endogenous in A549, PC9 and HEK293T)) (UniProt P14618)
Experiment: cross-linking

endogenous PKM2, P14618 1-531 (natural protein; other documents disagree on this pair), sequence (P14618 whole entry): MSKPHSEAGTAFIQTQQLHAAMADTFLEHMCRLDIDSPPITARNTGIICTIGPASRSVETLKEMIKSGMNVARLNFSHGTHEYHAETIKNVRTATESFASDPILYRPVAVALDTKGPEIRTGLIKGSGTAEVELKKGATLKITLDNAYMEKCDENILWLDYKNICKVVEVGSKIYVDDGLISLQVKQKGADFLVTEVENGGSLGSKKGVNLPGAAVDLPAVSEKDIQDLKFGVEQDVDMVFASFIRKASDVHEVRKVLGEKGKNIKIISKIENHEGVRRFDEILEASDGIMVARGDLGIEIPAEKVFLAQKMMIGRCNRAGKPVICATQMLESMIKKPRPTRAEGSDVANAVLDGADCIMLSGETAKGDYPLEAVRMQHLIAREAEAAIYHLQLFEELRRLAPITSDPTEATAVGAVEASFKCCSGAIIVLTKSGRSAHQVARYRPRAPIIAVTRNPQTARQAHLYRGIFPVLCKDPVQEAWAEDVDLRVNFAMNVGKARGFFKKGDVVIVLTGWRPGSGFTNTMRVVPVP

Question: With “endogenous PKM2, P14618 1-531 (natural protein; other documents disagree on this pair)” as the substance, how does the stoichiometry N read?
Answer: Its stoichiometry N is 2.
